Reference: the supplement of paper PMC10126150
± gives the standard deviation of the averaged measurements.

test system: ATP; test: switch fluorescence ratio, 500 uM ATP over buffer (Cy3 cluster intensity, sum of 5 cycles each) (fold (ratio)); higher = stronger signal-on switching upon ATP binding; sequences stand for … in TCGTCGGCAGCGTCAGATGTGTATAAGAGACAGTTTTTTTTTTTTTTTTTTTTTTTTT…TC; details: aptamer strand: ATP DNA aptamer (quencher-CACCTGGGGGAGTATTGCGGAGGAAGG + anchor), 100 nM annealed; ATP concentration: 500 uM
Summary of the method: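 Values give the fluorescence ratio for each switch-domain sequence, averaged from per-cluster ratios of summed target-cycle to summed buffer-cycle Cy3 intensity. The Cy3-labelled switching-strand clusters sat on a modified Illumina MiSeq flow-cell, were annealed to 100 nM quencher-labelled ATP aptamer, and were imaged in selection buffer, then after 15 min with 500 uM ATP at 22 °C. Five cycles ran with NaOH stripping and re-annealing between them, and clusters outside 100-1000 RFU were excluded.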
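Further: ATP exposure 15 min at 22 °C before imaging.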

Q: For TGGTTCGGGG, which switch fluorescence ratio is on record?
A: The switch fluorescence ratio was 0.96 ± 0.015.

Q: For ATTAGTGTGG, which switch fluorescence ratio is on record?
A: Its switch fluorescence ratio is 1 ± 0.033.

Q: CAGTGGGGGT was tested. Which switch fluorescence ratio did it give?
A: Its switch fluorescence ratio is 1 ± 0.03.

Q: Which switch fluorescence ratio does the source give for GTGATAAGGT here?
A: Its switch fluorescence ratio is 1 ± 0.021.

Q: GTCTTCACGG was tested. Which switch fluorescence ratio did it give?
A: Its switch fluorescence ratio is 0.999 ± 0.01.

Q: How did the switch fluorescence ratio turn out when GATATAGTGT was run?
A: The switch fluorescence ratio was 0.991 ± 0.02.

Q: With TTTAGGCCCC as the sequence, how does the switch fluorescence ratio read?
A: The switch fluorescence ratio was 0.993 ± 0.044.

Q: Which switch fluorescence ratio does the source give for AGGAGTGTTT here?
A: Its switch fluorescence ratio is 1 ± 0.037.

Q: How did the switch fluorescence ratio turn out when AAGTTTTGGG was run?
A: The switch fluorescence ratio was 0.974 ± 0.02.

Q: For AGTTCAGGGC, which switch fluorescence ratio is on record?
A: Its switch fluorescence ratio is 1.003 ± 0.004.

Q: TTATTAAAAC was tested. Which switch fluorescence ratio did it give?
A: The switch fluorescence ratio was 0.999 ± 0.013.

Q: With CAGGGTTGGG as the sequence, how does the switch fluorescence ratio read?
A: The switch fluorescence ratio was 1 ± 0.019.

Q: ATTATATCCC was tested. Which switch fluorescence ratio did it give?
A: The switch fluorescence ratio was 1.06 ± 0.026.

Q: With TAATTGATTA as the sequence, how does the switch fluorescence ratio read?
A: Its switch fluorescence ratio is 1.0033 ± 0.00096.

Q: Which switch fluorescence ratio does the source give for TCTGCTAAGG here?
A: Its switch fluorescence ratio is 0.98406 ± 0.00079.

Q: With GTTGTTGGGA as the sequence, how does the switch fluorescence ratio read?
A: The switch fluorescence ratio was 0.9898 ± 0.003.

Q: How did the switch fluorescence ratio turn out when TAATCGTGCT was run?
A: The switch fluorescence ratio was 0.973 ± 0.019.

Q: With GGGGGCACGG as the sequence, how does the switch fluorescence ratio read?
A: Its switch fluorescence ratio is 1.01 ± 0.012.

Q: For TTAATTCATG, which switch fluorescence ratio is on record?
A: Its switch fluorescence ratio is 1.01 ± 0.017.

Q: For GGTTTCTAGA, which switch fluorescence ratio is on record?
A: The switch fluorescence ratio was 0.984 ± 0.024.

Q: AGGGGGAACG was tested. Which switch fluorescence ratio did it give?
A: The switch fluorescence ratio was 1.01 ± 0.016.

Q: For TGAGACATGC, which switch fluorescence ratio is on record?
A: Its switch fluorescence ratio is 0.994 ± 0.038.

Q: For TTCATTACCC, which switch fluorescence ratio is on record?
A: The switch fluorescence ratio was 1.028 ± 0.0082.

Q: Which switch fluorescence ratio does the source give for AAAATCGTCT here?
A: Its switch fluorescence ratio is 1.08 ± 0.086.

Q: How did the switch fluorescence ratio turn out when CGGGTTCGAG was run?
A: Its switch fluorescence ratio is 0.959 ± 0.001.

Q: For ATGATGGTTC, which switch fluorescence ratio is on record?
A: The switch fluorescence ratio was 1.01 ± 0.012.

Q: GAACACTTAT was tested. Which switch fluorescence ratio did it give?
A: Its switch fluorescence ratio is 1.04 ± 0.044.

Q: With AAAGTTTTCA as the sequence, how does the switch fluorescence ratio read?
A: Its switch fluorescence ratio is 1.02 ± 0.028.

Q: With TTTTATGAGG as the sequence, how does the switch fluorescence ratio read?
A: The switch fluorescence ratio was 0.973 ± 0.03.

Q: Which switch fluorescence ratio does the source give for CCTGTAGTTG here?
A: Its switch fluorescence ratio is 1.04 ± 0.037.

Q: ATCTTTATGG was tested. Which switch fluorescence ratio did it give?
A: Its switch fluorescence ratio is 0.964 ± 0.014.

Q: TTTGGGCGGT was tested. Which switch fluorescence ratio did it give?
A: Its switch fluorescence ratio is 1.04 ± 0.12.

Q: How did the switch fluorescence ratio turn out when TTTAACTGA was run?
A: The switch fluorescence ratio was 1.04 ± 0.044.

Q: GAGGGGCTTT was tested. Which switch fluorescence ratio did it give?
A: Its switch fluorescence ratio is 0.982 ± 0.018.

Q: With AGGTTATTAT as the sequence, how does the switch fluorescence ratio read?
A: Its switch fluorescence ratio is 0.999 ± 0.029.

Q: Which switch fluorescence ratio does the source give for CCAATCCAGT here?
A: The switch fluorescence ratio was 1.01 ± 0.013.

Q: CCAAGCGCCG was tested. Which switch fluorescence ratio did it give?
A: The switch fluorescence ratio was 1.12 ± 0.13.

Q: Which switch fluorescence ratio does the source give for TTTCAATGGT here?
A: Its switch fluorescence ratio is 1 ± 0.045.

Q: For TTAATGGGGC, which switch fluorescence ratio is on record?
A: Its switch fluorescence ratio is 1.01 ± 0.061.

Q: TCCCAGAACG was tested. Which switch fluorescence ratio did it give?
A: Its switch fluorescence ratio is 1.062 ± 0.0077.

Q: For GAGGAGCGTT, which switch fluorescence ratio is on record?
A: The switch fluorescence ratio was 0.9804 ± 0.007.

Q: How did the switch fluorescence ratio turn out when TTTCGCCGTT was run?
A: Its switch fluorescence ratio is 1.003 ± 0.0055.

Q: CACTTTGGAT was tested. Which switch fluorescence ratio did it give?
A: The switch fluorescence ratio was 0.9914 ± 0.0032.

Q: How did the switch fluorescence ratio turn out when GGTCGTTTCG was run?
A: Its switch fluorescence ratio is 1.01 ± 0.018.

Q: ATTTGTTGCT was tested. Which switch fluorescence ratio did it give?
A: Its switch fluorescence ratio is 0.981 ± 0.025.

Q: For CGTACTAGAT, which switch fluorescence ratio is on record?
A: Its switch fluorescence ratio is 0.9959 ± 0.0086.

Q: With GGGGGGCTGC as the sequence, how does the switch fluorescence ratio read?
A: The switch fluorescence ratio was 0.978 ± 0.036.

Q: GGGATGATAG was tested. Which switch fluorescence ratio did it give?
A: The switch fluorescence ratio was 0.959 ± 0.032.

Q: Which switch fluorescence ratio does the source give for TGAGAGCTGG here?
A: The switch fluorescence ratio was 0.98517 ± 0.00094.

Q: GAACTTTTTT was tested. Which switch fluorescence ratio did it give?
A: Its switch fluorescence ratio is 0.9935 ± 0.0083.

Q: With TTAAGGGTCC as the sequence, how does the switch fluorescence ratio read?
A: The switch fluorescence ratio was 0.984 ± 0.061.

Q: With TGCATTTAAT as the sequence, how does the switch fluorescence ratio read?
A: The switch fluorescence ratio was 1.01 ± 0.027.

Q: For GATGTGAAAG, which switch fluorescence ratio is on record?
A: The switch fluorescence ratio was 0.9638 ± 0.003.

Q: How did the switch fluorescence ratio turn out when TTTCTCGTAG was run?
A: The switch fluorescence ratio was 0.991 ± 0.016.

Q: For TTGTTA, which switch fluorescence ratio is on record?
A: The switch fluorescence ratio was 0.964 ± 0.044.

Q: Which switch fluorescence ratio does the source give for GAGTGGCACC here?
A: The switch fluorescence ratio was 1.04 ± 0.042.

Q: Which switch fluorescence ratio does the source give for TTTGGTGGCA here?
A: The switch fluorescence ratio was 0.9992 ± 0.0099.

Q: TTTTCTTATC was tested. Which switch fluorescence ratio did it give?
A: The switch fluorescence ratio was 1.02 ± 0.048.

Q: How did the switch fluorescence ratio turn out when CGAGTTGGAG was run?
A: Its switch fluorescence ratio is 1.01 ± 0.025.

Q: For GGCGCGTTAG, which switch fluorescence ratio is on record?
A: Its switch fluorescence ratio is 1.02 ± 0.06.

Q: With ACAAGGGAGC as the sequence, how does the switch fluorescence ratio read?
A: Its switch fluorescence ratio is 0.954 ± 0.018.

Q: How did the switch fluorescence ratio turn out when TGCGGCCGGG was run?
A: Its switch fluorescence ratio is 1.01 ± 0.012.

Q: Which switch fluorescence ratio does the source give for TCTGTTGGGG here?
A: Its switch fluorescence ratio is 0.992 ± 0.038.

Q: GGGAGGGGTG was tested. Which switch fluorescence ratio did it give?
A: The switch fluorescence ratio was 1.02 ± 0.064.

Q: AAGAGTGTCG was tested. Which switch fluorescence ratio did it give?
A: Its switch fluorescence ratio is 0.921 ± 0.056.

Q: For ATCGGCGGTG, which switch fluorescence ratio is on record?
A: Its switch fluorescence ratio is 0.986 ± 0.025.

Q: With TATTAGAATA as the sequence, how does the switch fluorescence ratio read?
A: Its switch fluorescence ratio is 0.9814 ± 0.006.

Q: How did the switch fluorescence ratio turn out when TTTAGTCGGT was run?
A: The switch fluorescence ratio was 0.9638 ± 0.0056.

Q: TAAGGCGGTA was tested. Which switch fluorescence ratio did it give?
A: Its switch fluorescence ratio is 0.963 ± 0.035.

Q: With GGATAGCTCG as the sequence, how does the switch fluorescence ratio read?
A: Its switch fluorescence ratio is 0.987 ± 0.041.

Q: AAAAATGGCT was tested. Which switch fluorescence ratio did it give?
A: The switch fluorescence ratio was 1.04 ± 0.091.

Q: How did the switch fluorescence ratio turn out when TGGTAATAGG was run?
A: The switch fluorescence ratio was 1.0108 ± 0.00095.

Q: For GGTCTACATG, which switch fluorescence ratio is on record?
A: Its switch fluorescence ratio is 0.985 ± 0.0076.

Q: For TTGGGGACGA, which switch fluorescence ratio is on record?
A: Its switch fluorescence ratio is 0.997 ± 0.032.

Q: For GCCAATGATC, which switch fluorescence ratio is on record?
A: Its switch fluorescence ratio is 1.01 ± 0.073.

Q: CCTTTTGAAC was tested. Which switch fluorescence ratio did it give?
A: Its switch fluorescence ratio is 1.04 ± 0.028.

Q: Which switch fluorescence ratio does the source give for ATTGGTAGGG here?
A: Its switch fluorescence ratio is 0.9858 ± 0.004.
